These results are taken from PMC12474881.

Assay [1] has as its target CaMKIIδ-0 F368A/L405M (human). Briefly: mass photometry.
Assay [2] has as its target CaMKIIα exon 18 with all Ser and Thr residues in exon 18 mutated to Ala (human).
Assay [3] has as its target CaMKIIα with exon 18 only as the variable linker (human).
Assay [4] concerns the target CaMKIIα with exon 14 only as the variable linker (human).
The target in assay [5] is CaMKIIδ with exon 14 only as the variable linker (human).
In assay [6] the target is CaMKIIβ with exon 14 only as the variable linker (human).
Assay [7] addresses CaMKIIα with the sequence of exon 18 reversed (human).
The target in assay [8] is CaMKIIα with acidic exon 14 (all basic residues of exon 14 mutated to acidic residues) (human).
Assay [9] concerns the target CaMKIIα mutants with acidic exon 18 positioned proximal to the regulatory segment.
The target of assay [10] is CaMKIIα with basified exon 18 (human).
In assay [11] the target is CaMKIIδ-0 F368A (human). The assay is described as follows: mass photometry.
The target in assay [12] is CaMKIIδ-0 F368A/Q407A (human). The assay is described as follows: mass photometry.

Regarding CaMKIIδ-0 F368A/L405M (enzyme), in assay [1], the percent of the population as tetradecameric holoenzyme at 100 nM is 5% and the stoichiometry N – broadly, the number of molecules, sites or subunits per partner or assembly – amounted to 2.
For “Calmodulin (Gallus gallus) (from UniProt P62149 1-149) (natural protein)”, the EC50 of Ca2+/CaM for kinase activity (coupled kinase assay) was determined as 350 nM in [2] and 70 nM in assay [9]. Moreover, the EC50 of Ca2+/CaM for kinase activity against syntide-2 (coupled kinase assay) stood at 193 nM in assay [3]; 17 nM in assay [4]; 20 nM in [5]; 20 nM in [6]; 41 nM in assay [7]; 102 nM in assay [8]. In [10], the EC50 of Ca2+/CaM for kinase activity against syntide-2 (coupled kinase assay) was 34 nM.
In assay [11], CaMKIIδ-0 F368A (enzyme) showed a percent of the total population as dimers at 25 nM of 20%, a percent of the total population as dimers at 100 nM of 10%, a percent of the total population as tetramers at 100 nM of 5% and a stoichiometry N of 14.
As for CaMKIIδ-0 F368A/Q407A (enzyme), in assay [12], the percent of the population as tetradecameric holoenzyme at 100 nM was 5% and the stoichiometry N stood at 2.
